Results taken from publication PMC12757481, “The dihydropyridine LA1011 modulates multiple Hsp90—co-chaperone interactions relevant to Alzheimer’s disease” (Cell Stress & Chaperones, 2025).
Where “and” joins values, the source holds several entries; their conditions need not be identical. Equal entries are not always repeated. Where two headings read alike, the source gives them in different places.

Assays:
Hsp90 [1] = biological target: T1, Hsp90 (Saccharomyces cerevisiae, UniProt P02829); assay: ITC, co-chaperone binding to Hsp90; design: species or system yeast
T1 construct: made in house
Protocol: (§1) The heat of interaction was measured on an ITC200 microcalorimeter (Microcal) under the same buffer conditions (20 mM Tris, pH 7.5, containing 5 mM NaCl), except for experiments using PP5, where we omitted EDTA and used 1 μM MnCl2. In experiments using nucleotide, we used 5 mM AMPPNP and 6 mM MgCl2. For experiments using Aha1 with AMPPNP the buffer contained 100 mM NaCl. Similarly, Sgt1 experiments also included 100 mM NaCl in the buffer. […] To assess co-chaperone binding to Hsp90 and Hsp90-LA1011 complex, we generally injected aliquots of co-chaperone at concentrations ranging from 200 to 400 μM into the microcell containing the Hsp90 or Hsp90-LA1011 complex at concentrations ranging from 20 to 30 μM of Hsp90 or Hsp90 in complex with 2 mM LA1011 at 30 °C. Heats of dilution were determined by diluting the injectant into the buffer. Data were fitted using a curve-fitting algorithm (Microcal Origin) either as a one-site binding event or as two independent binding sites as required.

Hsp90-LA1011 = biological target: T2, Hsp90-LA1011 (Saccharomyces cerevisiae, UniProt P02829); assay: ITC, co-chaperone binding to Hsp90-LA1011 complex; design: species or system yeast
T2 construct: made in house
Protocol: as §1

Hsp90 [2] = biological target: T1, Hsp90; assay: Lactate-dehydrogenase and pyruvate-kinase-linked Hsp90 ATPase assay; type: biochemical, yeast; conditions: for effect of LA1011 on the co-chaperone directed regulation of Hsp90 ATPase activity: 2 μM Hsp90, 240 μM LA1011, co-chaperone 0.25 to 30 μM, normalized data compared with control lacking LA1011
Protocol: ATPase assays using 2 μM Hsp90 were conducted as previously described using the lactate-dehydrogenase and pyruvate-kinase-linked assay.[12] Briefly, 240 μM of LA1011 was used in assays as required. Co-chaperones were added to Hsp90 and Hsp90-LA1011 complex at a variety of concentrations ranging from 0.25 to 30 μM. Assays utilizing LA1011 were normalized by recalculating the activity for all data points so that the data points were converted to a percentage of the activity relative to the first data point, which lacked any addition of co-chaperone. The first data point was therefore 100% max Hsp90 activity. All assays were conducted at least in triplicate.
To assess the effect of LA1011 on the mechanistic action of co-chaperones, we used the lactate-dehydrogenase and pyruvate-kinase-linked Hsp90 ATPase assay. We first assessed the effect of each co-chaperone on Hsp90 ATPase activity and then compared its effect on a Hsp90-LA1011 complex.

[3] = ITC 30 °C, co-chaperone and Hsp90 without LA1011, one-site fit, read-out: Kd
[4] = ITC 30 °C, Hsp90 in complex with 2 mM LA1011, one-site fit, read-out: Kd

T1 sequence (P02829 whole entry): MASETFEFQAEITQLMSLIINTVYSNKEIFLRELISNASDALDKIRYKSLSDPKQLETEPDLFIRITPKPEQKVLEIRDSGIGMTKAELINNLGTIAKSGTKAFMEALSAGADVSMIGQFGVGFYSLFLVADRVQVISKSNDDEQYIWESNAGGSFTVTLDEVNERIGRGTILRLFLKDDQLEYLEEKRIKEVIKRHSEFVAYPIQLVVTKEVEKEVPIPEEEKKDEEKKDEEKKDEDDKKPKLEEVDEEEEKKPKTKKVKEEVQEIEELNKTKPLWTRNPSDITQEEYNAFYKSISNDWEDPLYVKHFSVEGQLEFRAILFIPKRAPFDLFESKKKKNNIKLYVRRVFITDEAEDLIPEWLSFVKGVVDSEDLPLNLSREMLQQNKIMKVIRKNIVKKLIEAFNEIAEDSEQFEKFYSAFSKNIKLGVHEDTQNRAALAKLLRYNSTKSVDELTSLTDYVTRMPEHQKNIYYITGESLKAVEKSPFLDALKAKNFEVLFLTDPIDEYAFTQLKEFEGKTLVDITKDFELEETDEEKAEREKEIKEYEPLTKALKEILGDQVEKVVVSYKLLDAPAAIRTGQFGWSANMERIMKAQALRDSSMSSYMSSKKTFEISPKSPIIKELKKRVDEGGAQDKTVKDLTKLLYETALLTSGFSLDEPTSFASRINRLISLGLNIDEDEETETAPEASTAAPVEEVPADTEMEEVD
T2 sequence (P02829 whole entry): as above

B1: CHIP: mouse CHIP, Hsp90-dependent E3 ubiquitin ligase co-chaperone, dimeric (protein, UniProt Q9WUD1 1-304, looked up)
E3 ubiquitin-protein ligase …: MKGKEEKEGGARLGTGGGGSPDKSPSAQELKEQGNRLFVGRKYPEAAACYGRAITRNPLVAVYYTNRALCYLKMQQPEQALADCRRALELDGQSVKAHFFLGQCQLEMESYDEAIANLQRAYSLAKEQRLNFGDDIPSALRIAKKKRWNSIEERRIHQESELHSYLTRLIAAERERELEECQRNHEGHEDDGHIRAQQACIEAKHDKYMADMDELFSQVDEKRKKRDIPDYLCGKISFELMREPCITPSGITYDRKDIEEHLQRVGHFDPVTRSPLTQEQLIPNLAMKEVIDAFISENGWVEDY
- Kd (Hsp90 [1]; [3]): 80 nM
- Kd (Hsp90-LA1011; [4]): 1440 nM
- effect on Hsp90 ATPase activity (Hsp90 [2]; 2 μM Hsp90): inhibitor of the ATPase activity of Hsp90
- effect of LA1011 on the co-chaperone directed regulation of Hsp90 ATPase activity (Hsp90 [2]): LA1011 affects CHIP’s ability to inhibit Hsp90 ATPase activity

B2: TPR domain of PP5: PP5-TPR domain (amino acid residues 1-177) (protein, UniProt P53041 1-177, looked up, fragment)
chain: MAMAEGERTECAEPPRDEPPADGALKRAEELKTQANDYFKAKDYENAIKFYSQAIELNPSNAIYYGNRSLAYLRTECYGYALGDATRAIELDKKYIKGYYRRAASNMALGKFRAALRDYETVVKVKPHDKDAKMKYQECNKIVKQKAFERAIAGDEHKRSVVDSLDIESMTIEDEYS
modifications: TPR domain
- effect of LA1011 on the co-chaperone directed regulation of Hsp90 ATPase activity (Hsp90 [2]): small but significant effect

B3: Sgt1: yeast Sgt1 (amino acid residues 1-280), Hsp90 co-chaperone (protein, UniProt Q08446 1-280, looked up, fragment)
chain: MPVEKDLKTAYKALYDEKEPLKALHLYDEILKGSPTNLTALIFKAACLEKLYFGFSDWHSDATMENAKELLDKALMTAEGRGDRSKIGLVNFRYFVHFFNIKDYELAQSYFKKAKNLGYVDDTLPLWEDRLETKLNKKNKKQKDSTNKHTIKPVESIENRGDNNSSHSPISPLKIETAPQESPKFKIDWYQSSTSVTISLFTVNLPESKEQVNIYISPNDRRTLSISYQVPKSGSEFQYNAKLSHEVDPKAVSLKIFPKKLEITLSKIDSTQWKKLEEDI
- Kd (Hsp90 [1]; [3]): 16200 nM
- Kd (Hsp90-LA1011; [4]): 13600 nM
- effect of LA1011 on the co-chaperone directed regulation of Hsp90 ATPase activity (Hsp90 [2]): unaffected by the presence of LA1011

B4: FKBP52: Hsp90 co-chaperone, TPR domain-containing protein (protein, UniProt Q02790 1-459, looked up)
Peptidyl-prolyl cis-trans …: MTAEEMKATESGAQSAPLPMEGVDISPKQDEGVLKVIKREGTGTEMPMIGDRVFVHYTGWLLDGTKFDSSLDRKDKFSFDLGKGEVIKAWDIAIATMKVGEVCHITCKPEYAYGSAGSPPKIPPNATLVFEVELFEFKGEDLTEEEDGGIIRRIQTRGEGYAKPNEGAIVEVALEGYYKDKLFDQRELRFEIGEGENLDLPYGLERAIQRMEKGEHSIVYLKPSYAFGSVGKEKFQIPPNAELKYELHLKSFEKAKESWEMNSEEKLEQSTIVKERGTVYFKEGKYKQALLQYKKIVSWLEYESSFSNEEAQKAQALRLASHLNLAMCHLKLQAFSAAIESCNKALELDSNNEKGLFRRGEAHLAVNDFELARADFQKVLQLYPNNKAAKTQLAVCQQRIRRQLAREKKLYANMFERLAEEENKAKAEASSGDHPTDTEMKEEQKSNTAGSQSQVETEA
- Kd (Hsp90 [1]; ITC, Hsp90 without LA1011, two-site fit, value listed first in Table 2 and figures, read-out: Kd (two-site fit, first value listed)): ~620 nM
- Kd (Hsp90 [1]; ITC, Hsp90 without LA1011, two-site fit, value listed second in Table 2 and figures, read-out: Kd (two-site fit, second value listed)): ~620 nM and 620 nM
- Kd (Hsp90-LA1011; ITC, Hsp90 with 2 mM LA1011, two-site fit, value listed first in Table 2 and figures, read-out: Kd (two-site fit, first value listed)): 2800 nM
- Kd (Hsp90-LA1011; ITC, Hsp90 with 2 mM LA1011, two-site fit, value listed second in Table 2 and figures, read-out: Kd (two-site fit, second value listed)): ~200 nM and 200 nM
